B1: Mothers against decapentaplegic homolog 4 (Homo sapiens), Q13485 (parent)
chain: MDNMSITNTPTSNDACLSIVHSLMCHRQGGESETFAKRAIESLVKKLKEKKDELDSLITAITTNGAHPSKCVTIQRTLDGRLQVAGRKGFPHVIYARLWRWPDLHKNELKHVKYCQYAFDLKCDSVCVNPYHYERVVSPGIDLSGLTLQSNAPSSMMVKDEYVHDFEGQPSLSTEGHSIQTIQHPPSNRASTETYSTPALLAPSESNATSTANFPNIPVASTSQPASILGGSHSEGLLQIASGPQPGQQQNGFTGQPATYHHNSTTTWTGSRTAPYTPNLPHHQNGHLQHHPPMPPHPGHYWPVHNELAFQPPISNHPAPEYWCSIAYFEMDVQVGETFKVPSSCPIVTVDGYVDPSGGDRFCLGQLSNVHRTEAIERARLHIGKGVQLECKGEGDVWVRCLSDHAVFVQSYYLDREAGRAPGDAVHKIYPSAYIKVFDLRQCHRQMQQQAATAQAAAAAQAAAVAGNIPGPGSVGGIAPAISLSAAAGIGVDDLRRLCILRMSFVKGWGPDYPRQSIKETPCWIEIHLHRALQLLDEVLHTMPIADPQPLD
partner: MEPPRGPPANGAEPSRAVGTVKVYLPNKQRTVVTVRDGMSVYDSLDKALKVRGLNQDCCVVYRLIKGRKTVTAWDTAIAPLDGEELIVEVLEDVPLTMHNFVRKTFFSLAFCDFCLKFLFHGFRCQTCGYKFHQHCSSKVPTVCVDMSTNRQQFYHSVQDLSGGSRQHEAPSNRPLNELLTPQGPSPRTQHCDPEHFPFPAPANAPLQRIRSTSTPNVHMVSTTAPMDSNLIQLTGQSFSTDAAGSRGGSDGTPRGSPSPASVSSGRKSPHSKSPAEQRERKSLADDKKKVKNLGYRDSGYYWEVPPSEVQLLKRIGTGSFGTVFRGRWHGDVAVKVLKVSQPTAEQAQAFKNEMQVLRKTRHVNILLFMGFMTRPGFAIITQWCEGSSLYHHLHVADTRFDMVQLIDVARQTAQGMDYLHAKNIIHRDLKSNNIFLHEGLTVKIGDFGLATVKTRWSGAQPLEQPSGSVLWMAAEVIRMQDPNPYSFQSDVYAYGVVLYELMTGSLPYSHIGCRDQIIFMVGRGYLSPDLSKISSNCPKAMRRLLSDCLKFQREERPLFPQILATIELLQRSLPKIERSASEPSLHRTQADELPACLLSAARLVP
B2: Mothers against decapentaplegic homolog 4 (Homo sapiens), Q13485 (parent)
chain: B1 chain
partner: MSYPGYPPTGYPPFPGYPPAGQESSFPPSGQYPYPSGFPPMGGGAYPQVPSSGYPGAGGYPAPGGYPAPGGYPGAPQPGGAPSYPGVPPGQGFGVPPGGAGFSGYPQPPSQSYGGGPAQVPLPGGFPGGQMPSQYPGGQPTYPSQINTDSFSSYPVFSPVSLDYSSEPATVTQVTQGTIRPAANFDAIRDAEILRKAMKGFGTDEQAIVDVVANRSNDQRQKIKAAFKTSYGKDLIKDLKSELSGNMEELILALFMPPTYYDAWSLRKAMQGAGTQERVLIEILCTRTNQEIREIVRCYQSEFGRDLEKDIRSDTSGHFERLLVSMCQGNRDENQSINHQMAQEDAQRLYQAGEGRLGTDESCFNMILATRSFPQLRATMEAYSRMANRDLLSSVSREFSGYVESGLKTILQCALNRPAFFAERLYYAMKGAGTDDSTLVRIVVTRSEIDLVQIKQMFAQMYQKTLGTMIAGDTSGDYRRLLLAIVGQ
B3: Mothers against decapentaplegic homolog 4 (Homo sapiens), Q13485 (parent)
chain: B1 chain
partner: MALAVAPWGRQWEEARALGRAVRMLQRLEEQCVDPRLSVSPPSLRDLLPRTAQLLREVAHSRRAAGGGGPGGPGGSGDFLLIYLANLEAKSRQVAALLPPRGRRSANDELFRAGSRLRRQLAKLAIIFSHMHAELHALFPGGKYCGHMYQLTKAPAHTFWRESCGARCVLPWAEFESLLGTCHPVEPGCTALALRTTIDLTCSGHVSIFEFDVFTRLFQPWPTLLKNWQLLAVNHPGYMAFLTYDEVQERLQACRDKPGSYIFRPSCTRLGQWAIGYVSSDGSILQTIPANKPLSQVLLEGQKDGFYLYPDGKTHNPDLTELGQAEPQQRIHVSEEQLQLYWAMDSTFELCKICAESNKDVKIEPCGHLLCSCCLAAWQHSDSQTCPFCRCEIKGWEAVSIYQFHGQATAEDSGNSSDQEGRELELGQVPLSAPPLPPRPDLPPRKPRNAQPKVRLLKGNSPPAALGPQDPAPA
B4: Mothers against decapentaplegic homolog 4 (Homo sapiens), Q13485 (parent)
chain: B1 chain
partner: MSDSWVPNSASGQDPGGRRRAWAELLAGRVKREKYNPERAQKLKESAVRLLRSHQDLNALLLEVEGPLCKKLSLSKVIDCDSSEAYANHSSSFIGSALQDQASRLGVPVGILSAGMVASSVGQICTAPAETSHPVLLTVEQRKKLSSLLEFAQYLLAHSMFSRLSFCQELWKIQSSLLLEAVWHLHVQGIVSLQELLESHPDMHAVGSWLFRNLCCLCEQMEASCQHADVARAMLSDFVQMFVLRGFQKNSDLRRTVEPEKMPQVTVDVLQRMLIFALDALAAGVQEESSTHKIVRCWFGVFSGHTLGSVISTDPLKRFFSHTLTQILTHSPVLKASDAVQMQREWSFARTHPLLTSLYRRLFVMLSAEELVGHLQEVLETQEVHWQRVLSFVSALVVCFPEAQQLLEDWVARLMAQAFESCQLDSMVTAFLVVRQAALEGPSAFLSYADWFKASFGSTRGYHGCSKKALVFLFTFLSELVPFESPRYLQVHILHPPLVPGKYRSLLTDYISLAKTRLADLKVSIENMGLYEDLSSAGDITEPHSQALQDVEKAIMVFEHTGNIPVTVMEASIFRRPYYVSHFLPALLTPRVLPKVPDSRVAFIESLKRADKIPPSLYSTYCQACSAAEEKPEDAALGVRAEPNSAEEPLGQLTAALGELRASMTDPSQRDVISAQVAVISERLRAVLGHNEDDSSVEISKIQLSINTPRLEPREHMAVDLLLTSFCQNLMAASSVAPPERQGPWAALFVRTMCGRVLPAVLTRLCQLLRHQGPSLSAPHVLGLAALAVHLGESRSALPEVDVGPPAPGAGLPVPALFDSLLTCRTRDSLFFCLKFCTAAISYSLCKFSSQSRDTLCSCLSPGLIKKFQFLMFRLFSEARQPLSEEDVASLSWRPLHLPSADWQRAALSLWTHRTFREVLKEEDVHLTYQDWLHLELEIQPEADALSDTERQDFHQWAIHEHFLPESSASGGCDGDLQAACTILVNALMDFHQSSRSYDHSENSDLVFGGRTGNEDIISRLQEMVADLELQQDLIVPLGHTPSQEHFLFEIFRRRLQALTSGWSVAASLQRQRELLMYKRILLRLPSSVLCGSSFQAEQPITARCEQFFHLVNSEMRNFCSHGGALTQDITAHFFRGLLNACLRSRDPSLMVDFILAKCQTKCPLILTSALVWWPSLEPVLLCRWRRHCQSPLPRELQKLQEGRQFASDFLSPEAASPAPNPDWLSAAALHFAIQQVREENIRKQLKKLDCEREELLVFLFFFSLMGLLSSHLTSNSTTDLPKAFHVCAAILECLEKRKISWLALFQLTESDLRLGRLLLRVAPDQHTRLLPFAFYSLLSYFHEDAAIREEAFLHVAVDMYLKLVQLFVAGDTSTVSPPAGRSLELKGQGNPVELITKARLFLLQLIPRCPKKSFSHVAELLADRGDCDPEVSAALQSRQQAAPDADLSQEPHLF

Variants of: B1
Conditions: with araf_human ARAF

| effect of a mutation on the interaction | Variant |
| --- | --- |
| with no effect | R361C |

Variants of: B1
Conditions: with araf_human ARAF
Remark: another data set of the same source

| effect of a mutation on the interaction | Variant |
| --- | --- |
| with no effect | R361H |

Variants of: B2
Conditions: with anxa7_human ANXA7, P20073

| effect of a mutation on the interaction | Variant |
| --- | --- |
| with no effect | R361C |

Variants of: B2
Conditions: with anxa7_human ANXA7, P20073
Remark: another data set of the same source

| effect of a mutation on the interaction | Variant |
| --- | --- |
| with no effect | R361H |

Variants of: B2
Conditions: with anxa7_human ANXA7, P20073
Remark: another data set of the same source

| effect of a mutation on the interaction | Variant |
| --- | --- |
| with no effect | D351H |

Variants of: B2
Conditions: with anxa7_human ANXA7, P20073
Remark: another data set of the same source

| effect of a mutation on the interaction | Variant |
| --- | --- |
| with no effect | G386D |

Variants of: B3
Conditions: with cblc_human CBLC

| effect of a mutation on the interaction | Variant |
| --- | --- |
| with no effect | D351H |

Variants of: B3
Conditions: with cblc_human CBLC
Remark: another data set of the same source

| effect of a mutation on the interaction | Variant |
| --- | --- |
| with no effect | G386D |

Variants of: B3
Conditions: with cblc_human CBLC
Remark: another data set of the same source

| effect of a mutation on the interaction | Variant |
| --- | --- |
| with no effect | R361H |

Variants of: B3
Conditions: with cblc_human CBLC
Remark: another data set of the same source

| effect of a mutation on the interaction | Variant |
| --- | --- |
| with no effect | R361C |

Variants of: B4
Conditions: with fanca_human FANCA

| effect of a mutation on the interaction | Variant |
| --- | --- |
| with no effect | G386D |

Variants of: B4
Conditions: with fanca_human FANCA
Remark: another data set of the same source

| effect of a mutation on the interaction | Variant |
| --- | --- |
| with no effect | R361C |

— IntAct's records for PubMed 35512704
